According to patent publication US20200199207A1 (MABYLON, published 2020):
Where a chain is given by its changes, count along the chain named.

B1: hm12G10 (antibody, V domains shown)
VH: EVQLLESGGRLLRPGGSLSLSCVASGFYFGDFGMSWVRQVPGKGLEWVSGIDWSGRSTGYVDSMKGRLTISRDNDKSSLYLQMNDLRGEDTAVYYCARVGRLCSGDSCDSMGAFDLWGQGTMVTVSS
VL: DIQLTQSPSTLSASIGDSVTITCRASQNIDNWLAWYQQKPGKAPRLLIYKASSLGSGVSSKFRGSGFGTEFTLTITSLQPDDFATYYCQKSNGYSRTFGQGTKVDIK
notes: also called 12G10 with mouse Fc; hmMAb 12G10
B2: hm37D5 (antibody, V domains shown)
VH: EEQLVESGGRLLRPGESLSLSCAAVGFNFGDFGMAWVRQPPGKGLEWVAGINWSGHSTGFVDSMKGRLTISRDSAKSSLFLQMNSLRGEDTAVYYCARVGRLCSGDICDSMGAFDLWGQGTMVTVSS
VL: B1 VL with L4M, S18R, N28T, K39R, R45K, K50Q, G55Q, K61R, F67S, D105E
notes: also called 37D5 with mouse Fc; hmMAb 37D5
B3: hm32B10 (antibody, V domains shown)
VH: QVQLVQSGAEVKKPGASVKVSCRASGYIFRNFDINWVRQATGQGLEWMGWMSPKSGDTGYAQKFQGRVTMTRDTSINTAYMELSSLTSEDSAVYYCARGVDGTNWGQGTRVTVSS
VL: DIVMTQSPDSLGVSLGERATISCKSSQSILDNSNNKNFIAWFQQKPGQPPKLLIYWASARESGVPDRFSGSGSGTEFTLTINSLQAEDVAVYYCYQYYSTPHTFGQGTKLDLR
notes: also called 32B10 with mouse Fc; hmMAb 32B10
B4: hm2F8 (antibody, V domains shown)
VH: EVQLVESGGGLVKPGGSLRLSCAASGFIFSDYNMNWVRQAPGKGLEWVSSITRSSRTIYYADSVKGRFTISRDNAKNSLHLQMNSLRDADTAVYYCAREDFDVSTGPYYMDVWGNGTTVIVSS
VL: EIVLTQSPGTLSLSPGERATLSCRASQSVSNMFLVWYQQKPGQAPRLLMYGASTRATDIPDRFSGSGSGTDFTLTISRLEPEDFAVYYCQQNGNSPYTFGQGTKLEIK
notes: also called 2F8 with mouse Fc; hmMAb 2F8
B5: hm4B2 (antibody, V domains shown)
VH: QVQLQEAGPRLVKPSQTLSVTCTVSGASITIGGYYWSWIRQHPGKGLEWMGYIYSNGRTYYNPSLKSRIAMSIDTSKNQFSLKLTSVTAADTAIYFCAREAWETPLWGQGTLITVSS
VL: DIQMTQSPSSLSASVGDRVTITCQANQDIVNSLNWFQHKPGTAPKVLIYDASKLETGVPSRFSGSGSGTHFTFTISGLQPEDFATYFCQQYENLPHTFGQGTKLEIR
notes: also called 4B2 with mouse Fc; hmMAb 4B2

Columns and labels:
Experiment in all cases: ELISA, antigen-coated plate
[1] = target: T1, nAra h 3 (peanut)
T1 construct: Bought natural allergen; also called naturally extracted Ara h 3
Protocol: (§1) EC50 binding of exemplary anti-peanut antibodies of the present invention to peanut allergens or peanut extract, was determined by ELISA. Serial dilutions of MAbs (from 1000 ng/ml down to 0.0169 ng/ml) were incubated for 2 hours with antigen-coated plates (coating overnight at 4° C. or 1 h at 37° C. with 1 μg/ml antigen in PBS, followed by wash out and blocking with 2% BSA in PBS). The plates were subsequently washed and binding of MAbs was detected with anti-human HRP-conjugated Fc-gamma-specific secondary antibody (Jackson ImmunoResearch, West Grove, Pa., USA). Concentrations of MAb resulting in half of maximal binding to respective antigens (EC50, ng/ml) were calculated using GraphPad Prism 5 software on sigmoidal dose-response curves (variable slope, 4 parameters) obtained by plotting the log of the concentration versus OD450 nm measurements; for the results see FIG. 3 and table 2.

[2] = target: T2, nAra h 6 (peanut, UniProt Q647G9 22-145)
T2 construct: Bought natural allergen; also called naturally extracted Ara h 6
T2 sequence (looked up): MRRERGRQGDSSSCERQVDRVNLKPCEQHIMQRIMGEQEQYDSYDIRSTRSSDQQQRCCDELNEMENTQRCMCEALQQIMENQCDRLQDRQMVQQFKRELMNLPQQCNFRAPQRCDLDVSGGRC
Protocol: as §1

[3] = target: T3, nAra h 2 (peanut, UniProt Q6PSU2 22-172)
T3 construct: Bought natural allergen; also called naturally extracted Ara h 2
T3 sequence (looked up): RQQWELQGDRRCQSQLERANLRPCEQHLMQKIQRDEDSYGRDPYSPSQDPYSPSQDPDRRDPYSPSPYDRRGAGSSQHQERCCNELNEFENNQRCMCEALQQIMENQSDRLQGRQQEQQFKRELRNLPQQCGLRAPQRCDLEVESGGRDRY
Protocol: as §1

[4] = target: T4, nAra h 1 (peanut, UniProt P43238 85-626)
T4 construct: Bought natural allergen; also called naturally extracted Ara h 1
T4 sequence (looked up): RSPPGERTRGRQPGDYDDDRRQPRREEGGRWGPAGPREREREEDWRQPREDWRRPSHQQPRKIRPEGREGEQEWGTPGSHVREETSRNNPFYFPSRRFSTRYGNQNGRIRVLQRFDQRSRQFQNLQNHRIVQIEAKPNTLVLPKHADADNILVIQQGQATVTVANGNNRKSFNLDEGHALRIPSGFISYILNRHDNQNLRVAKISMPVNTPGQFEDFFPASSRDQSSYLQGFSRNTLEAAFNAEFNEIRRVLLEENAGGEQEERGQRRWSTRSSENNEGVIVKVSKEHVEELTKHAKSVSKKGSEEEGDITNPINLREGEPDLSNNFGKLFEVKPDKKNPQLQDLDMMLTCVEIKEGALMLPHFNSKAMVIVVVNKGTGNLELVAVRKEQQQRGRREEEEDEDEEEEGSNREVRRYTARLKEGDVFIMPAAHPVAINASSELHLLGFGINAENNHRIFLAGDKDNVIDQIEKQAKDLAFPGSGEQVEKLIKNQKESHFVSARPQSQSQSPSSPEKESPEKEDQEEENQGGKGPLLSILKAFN
Protocol: as §1

Binder | EC50 [1] [µg/mL] | EC50 [2] [µg/mL] | EC50 [3] [µg/mL] | EC50 [4] [µg/mL]
B1 | 0.0368 | 0.0278 | 0.0067 | 0.195
B2 | 0.0723 | 0.034 | 0.0052 | 0.115
B3 |  |  | 0.0099 | 
B4 |  |  | 0.0087 | 
B5 |  |  | 0.0102 | 
